{
  "source": "patent US9744220B2",
  "about": "“Compositions and methods for treating inflammatory diseases” (priority 2013, dated 2017)",
  "key": {"MCP-1 and FKN": {"test_system": "MCP-1 and FKN", "test": "IV sPDNF into TLR-deficient MyD88-/- mice, MCP-1 and FKN", "assay_type": "in vivo", "conditions": "IV 100 μg per mouse, 3 hr post-injection", "procedure": "Wild type C57BL/6 mice were used in the results depicted in FIGS. 11A-11D. FIG. 11A is a graph depicting that a single dose of intravenous (IV) sPDNF increased MCP-1 and FKN transcripts in the heart in a pulse-like response. Groups of mice (2 per group) were injected with vehicle (Veh) or sPDNF (150 μg/mouse) and sacrificed at 3, 6, 9 and 12 hr post-injection, and cardiac MCP-1 and FKN transcripts were quantified by qPCR. Points represent fold change of the mean±SD relative to Veh injected mice; *P<0.05 and **P<0.01. Experiment repeated three times with similar results; liver also responded with similar pulselike kinetics. FIG. 11B is a graph depicting that organ distribution of MCP-1 increased following a single IV dose of sPDNF. Experimental design analogous to that summarized above. FIG. 11C is a graph showing that a single IV dose of sPDNF augments MCP-1 and FKN transcripts dose-dependently in the heart. […] For the results depicted in FIGS. 11C and 11D, groups of three mice were injected with various doses of sPDNF, and heart and liver harvested 3 hr post-injection to quantify MCP-1 and FKN by qPCR. […]\nTo ensure that the response observed in wild type mice was not due to TLR activation, MCP-1 and FKN response to IV sPDNF was assessed in TLR-deficient MyD88^−/− mice (23)."}, "H9c2 cardiomyocytes [1]": {"test_system": "H9c2 cardiomyocytes", "test": "sPDNF stimulation of H9c2 cardiomyocytes, secretion by ELISA", "assay_type": "cell-based, rat", "conditions": "H9c2, 3 hr", "procedure": "(§1) FIG. 8A is a graph showing dose-response of MCP-1 secretion to sPDNF stimulation. H9c2 cardiomyocytes were plated in 6-well plates, grown in low serum (0.1% FCS) overnight, and stimulated with the indicated doses of sPDNF for 3 hr. Secretion of MCP-1, MIP-2α and IL-6 was determined by ELISA. FIG. 8B is a graph showing dose-response of MCP-transcript expression. H9c2 cardiomyocytes were plated in 6-well plates, grown in low serum (0.1%) overnight, and stimulated with the indicated doses of sPDNF for 3 hr, and MCP-transcript quantified by qPCR. Chemokine gene expression was normalized to HPRT and fold change calculated relative to vehicle-treated cells. Points represent mean±SD fold change expression of triplicate samples; *P<0.05, **P<0.01, and ***P<0.005. FIG. 8C is a graph showing time course of MCP-1 and FKN transcripts expression. H9c2 cardiomyocytes were plated in 6-well plates (triplicate), grown in low serum (0.1%) overnight, stimulated with sPDNF (1 μg/ml) for the indicated times, and MCP-1 and FKN (data not shown) transcripts quantified by qPCR. Three experiments gave similar results.\n(§2) Primary cardiomyocytes and cardiac fibroblasts, and H9c2 cardiomyocytes were seeded at 6-8×10^4 cells per well in DMEM/10% FCS and allowed to adhere overnight, serum starved (DMEM/0.1% FCS overnight), and treated with sPDNF (0.5 ng/ml-8 μg/ml, 0-16 h). Cell supernatants were collected and stored at −80° C. and cell monolayers rinsed with PBS and collected in Trizol for qPCR analysis.\nMCP-1: 96-well Maxisorp plates (Nunc) were coated overnight with relevant supernatants or MCP-1 standards (R&D Systems, 479-JE/CF) in coating buffer (50 mM NaHCO3/Na2CO3, pH 9.6, 0.02% NaN3), blocked in 5% BSA/PBST, reacted with a MCP-1 detection antibody (Santa Cruz, SC-28879; 1:200; 2 hr), and then alkaline-phosphatase (AP) conjugated secondary antibody (Sigma A3687; 1:1000; 1 hr). Between each step, plates were washed 2-4 times with PBST. […] MCP-1 concentrations were calculated relative to a 4-parametric standard curve using the SOFTmax Pro program. […]"}, "H9c2 cardiomyocytes [2]": {"test_system": "H9c2 cardiomyocytes", "test": "sPDNF stimulation of H9c2 cardiomyocytes, transcripts by qPCR", "assay_type": "cell-based, rat", "procedure": "as §1, §2\nRNA was isolated from Trizol lysates of cell monolayers or liquid nitrogen snap frozen tissue samples dissociated by a Tissue-Tearor mechanical homogenizer (Biospec Products, Inc.). cDNA was synthesized using the Quantitect Reverse Transcription kit (Qiagen) according to manufacturer's instructions. Chemokine and chemokine receptor transcripts were amplified using specific primers and normalized to HPRT using SYBR Green (Qiagen), and, if needed, expressed relative to control-unstimulated cells. The following primers were used: […]"}, "[3]": {"conditions": "H9c2, sPDNF 1 μg/ml, time course"}},
  "data": [
    {"molecule": "sPDNF: N-terminal short-form of T cruzi PDNF that contains Trk-binding sites, recombinant; amino acids 1-588 of SEQ ID NO: 2; JR-100 is the commercial name (protein, listed as Trypanosoma cruzi) MGKTVVVASRMFWLMFFVPLLLAICPSEPAYALAPGSSRVELFKRKNSTVPFEDKAGKVTERVVHSFRLPALVNVDGVMVAIADARYDTSNDNSLIDTVAKYSVDDGETWETQIAIKNSRVSSVSRVVDPTVIVKGNKLYVLVGSYYSSRSYWSSHGDARDWDILLAVGEVTKSTAGGKITASIKWGSPVSLKKFFPAEMEGMHTNQFLGGAGVAIVASNGNLVYPVQVTNKKKQVFSKIFYSEDDGKTWKFGKGRSDFGCSEPVALEWEGKLIINTRVDWKRRLVYESSDMEKPWVEAVGTVSRVWGPSPKSNQPGSQSSFTAVTIEGMRVMLFTHPLNFKGRWLRDRLNLWLTDNQRIYNVGQVSIGDENSAYSSVLYKDDKLYCLHEINTDEVYSLVFARLVGELRIIKSVLRSWKNWDSHLSSICTPADPAASSSESGCGPAVTTVGLVGFLSGNASQNVWEDAYRCVNASTANAERVRNGLKFAGVGGGALWPVSQQGQNQRYRFANHAFTLVASVTIHEAPRAASPLLGASLDSSGGKKLLGLSYDEKHQWQPIYGSTPVTPTGSWETGKRYHLVLTMANKI", "values": [
      {"measurement": "expression of FKN in the heart and liver", "setting": "MCP-1 and FKN", "result": "sharp increase"},
      {"measurement": "expression of MCP-1 in the heart and liver", "setting": "MCP-1 and FKN", "result": "sharp increase"},
      {"measurement": "secretion of IL-6", "setting": "H9c2 cardiomyocytes [1]", "result": "did not alter"},
      {"measurement": "secretion of macrophage inflammatory protein-2a/MIP-2a/CXCL2", "setting": "H9c2 cardiomyocytes [1]", "result": "did not alter"},
      {"measurement": "secretion of MCP-1", "setting": "H9c2 cardiomyocytes [1]; dose-dependently", "result": "dramatically increased"},
      {"measurement": "FKN mRNA", "setting": "H9c2 cardiomyocytes [2]; H9c2, 3 hr, dose-dependent", "result": "increase"},
      {"measurement": "MCP-1 mRNA", "setting": "H9c2 cardiomyocytes [2]; H9c2, 3 hr, dose-dependent", "result": "increase"},
      {"measurement": "time at which MCP-1 transcript dropped to levels similar to unstimulated cells", "setting": "H9c2 cardiomyocytes [2]; [3]", "result": 8, "unit": "h"},
      {"measurement": "time of maximal MCP-1 transcript increase after sPDNF stimulation", "setting": "H9c2 cardiomyocytes [2]; [3]", "result": 3, "unit": "h"}
    ]}
  ]
}
